Test [1] deals with hDII4 on cells (DII4 expressing HUVEC; engineered C6 rat glioma cells expressing hDII4) (human, UniProt Q9NR61 27-685). The experiment in a line: cell-based or functional assay.
Test [2] concerns the target T1, hDII4-mFc (human, UniProt Q9NR61 27-524).
T1 construct: also called dimeric DII4-mFc; not shown: mouse Fc
The experiment in a line: SPR BIACORE; antibody captured by anti-hFc; dimeric DII4-mFc analyte. The method, then:
(§1) Equilibrium dissociation constants (KD values) for antigen binding to the selected antibodies described above were determined by surface kinetics on a real-time biosensor surface plasmon resonance assay (BIACORE™ 2000). The antibody was captured on a goat anti-mouse IgG polyclonal antibody surface created through direct chemical coupling to a BIACORE™ chip to form a captured antibody surface. […] Kinetic analysis was performed to calculate KD, dissociation rate constants, and half-life of antigen/antibody complex dissociation (Table 1). […] Antibodies were presented by goat anti-hFc polyclonal antibody reagent (Jackson Immuno Research Lab) immobilized on BIACORE™ chip, and exposed to either dimeric DII4-mFc or monomeric DII4 protein (Table 2).
In general terms: In SPR one partner is held on a chip, and binding of the other changes the refractive index at the surface.

Test [3] deals with T1, hDII4-mFc. The experiment in a line: SPR BIACORE; antibody captured by anti-hFc; dimer analyte.
The target of the next test is T2, mmDII4-mFc (M. mulatta, UniProt Q9NR61 27-524 (human entry)).
T2 construct: also called mmDII4 dimer; not shown: mouse Fc
T2 chain: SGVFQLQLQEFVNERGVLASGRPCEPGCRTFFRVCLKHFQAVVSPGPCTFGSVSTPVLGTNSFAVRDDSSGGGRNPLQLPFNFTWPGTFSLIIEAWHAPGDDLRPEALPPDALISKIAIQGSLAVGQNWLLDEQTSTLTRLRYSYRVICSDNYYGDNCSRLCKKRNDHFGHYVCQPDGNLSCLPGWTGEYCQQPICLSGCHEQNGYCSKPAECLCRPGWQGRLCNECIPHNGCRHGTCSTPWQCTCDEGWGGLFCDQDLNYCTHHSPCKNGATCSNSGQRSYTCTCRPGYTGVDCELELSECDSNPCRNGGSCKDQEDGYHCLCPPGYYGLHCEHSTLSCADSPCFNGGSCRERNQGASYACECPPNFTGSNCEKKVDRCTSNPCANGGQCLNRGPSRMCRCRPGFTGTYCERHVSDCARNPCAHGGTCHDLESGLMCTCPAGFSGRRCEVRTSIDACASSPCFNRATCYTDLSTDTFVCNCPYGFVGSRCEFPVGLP
The description is as above.

In test [4] the target is T3, monomeric hDII4 (human delta-like ligand 4) (human, UniProt Q9NR61 27-524).
T3 construct: also called monomeric DII4 protein
The experiment in a line: SPR BIACORE; antibody captured by anti-hFc; monomeric DII4 analyte. The method, then: as §1

Test [5] addresses T4, hDII3-hFc (human delta-like ligand 3 fused to human Fc) (human, UniProt Q9NYJ7 27-490).
T4 construct: not shown: human Fc
T4 sequence: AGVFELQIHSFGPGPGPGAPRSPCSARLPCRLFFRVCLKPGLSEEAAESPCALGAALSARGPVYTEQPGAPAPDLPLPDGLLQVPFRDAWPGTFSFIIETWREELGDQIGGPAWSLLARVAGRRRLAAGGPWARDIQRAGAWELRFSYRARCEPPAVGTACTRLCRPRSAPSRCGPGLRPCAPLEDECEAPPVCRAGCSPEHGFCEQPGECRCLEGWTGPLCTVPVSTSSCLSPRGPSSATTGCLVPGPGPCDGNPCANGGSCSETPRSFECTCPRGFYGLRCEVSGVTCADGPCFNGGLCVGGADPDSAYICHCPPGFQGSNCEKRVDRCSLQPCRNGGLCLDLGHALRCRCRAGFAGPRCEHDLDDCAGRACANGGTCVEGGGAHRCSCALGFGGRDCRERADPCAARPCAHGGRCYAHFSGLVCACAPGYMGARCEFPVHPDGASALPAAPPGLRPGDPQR
The experiment in a line: OCTET; antibody captured by biotin-anti-hK on streptavidin biosensor. The protocol: Briefly, strepavidin high binding FA biosensors (ForteBio, Inc., Menlo Park, Calif.) were first incubated with biotin-anti-hK at 5 μg/ml for 10 min at 30° C., to achieve saturation. […] Changes in the thickness of the biological layer after each incubation were measured.

The target of test [6] is T5, hDII1-hFc (human delta-like ligand 1 fused to human Fc) (human, UniProt O00548 18-544).
T5 construct: not shown: human Fc
T5 sequence: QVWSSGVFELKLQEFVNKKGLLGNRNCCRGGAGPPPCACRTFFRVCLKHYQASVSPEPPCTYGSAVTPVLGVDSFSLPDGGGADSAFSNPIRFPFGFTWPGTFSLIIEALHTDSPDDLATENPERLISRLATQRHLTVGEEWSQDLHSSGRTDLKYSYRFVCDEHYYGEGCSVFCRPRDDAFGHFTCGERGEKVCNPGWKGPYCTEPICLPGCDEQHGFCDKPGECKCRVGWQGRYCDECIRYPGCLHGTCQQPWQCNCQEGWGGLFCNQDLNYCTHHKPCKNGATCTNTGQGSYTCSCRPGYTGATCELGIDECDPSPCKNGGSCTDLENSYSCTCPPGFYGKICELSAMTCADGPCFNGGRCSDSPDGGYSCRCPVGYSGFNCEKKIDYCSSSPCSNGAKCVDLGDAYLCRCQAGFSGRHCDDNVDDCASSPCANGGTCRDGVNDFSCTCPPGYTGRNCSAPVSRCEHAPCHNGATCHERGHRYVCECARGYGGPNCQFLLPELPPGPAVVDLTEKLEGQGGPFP
The experiment in a line: SPR BIACORE; antibody captured by anti-human kappa; hDII1-hFc analyte. The protocol: Cross-reactivity of the antibodies to human delta-like ligand1 (SEQ ID NO:953) and human delta-like ligand 3 (SEQ ID NO:954) proteins was determined.

The target of the next test is dimeric hDII4-hFc (human, UniProt Q9NR61 27-524, biotin in Example 3 (biotin-DII4-hFc), site not stated). The experiment in a line: cell-based or functional assay.
Test [7] has as its target T4, hDII3-hFc (human delta-like ligand 3 …). The experiment in a line: SPR BIACORE; ligand amine-coupled to CM-5 chip; antibody injected. An excerpt:
An alternative BIACORE™ format was used to assess cross-reactivity between anti-hDII4 antibody and either hDII1-hFc or hDII3-hFc.

Positions count from the first letter of the chain named.

Chain of hDII4 on cells (DII4 expressing HUVEC; engineered C6 rat glioma cells expressing hDII4) (Q9NR61 27-685 limits assumed, change not shown): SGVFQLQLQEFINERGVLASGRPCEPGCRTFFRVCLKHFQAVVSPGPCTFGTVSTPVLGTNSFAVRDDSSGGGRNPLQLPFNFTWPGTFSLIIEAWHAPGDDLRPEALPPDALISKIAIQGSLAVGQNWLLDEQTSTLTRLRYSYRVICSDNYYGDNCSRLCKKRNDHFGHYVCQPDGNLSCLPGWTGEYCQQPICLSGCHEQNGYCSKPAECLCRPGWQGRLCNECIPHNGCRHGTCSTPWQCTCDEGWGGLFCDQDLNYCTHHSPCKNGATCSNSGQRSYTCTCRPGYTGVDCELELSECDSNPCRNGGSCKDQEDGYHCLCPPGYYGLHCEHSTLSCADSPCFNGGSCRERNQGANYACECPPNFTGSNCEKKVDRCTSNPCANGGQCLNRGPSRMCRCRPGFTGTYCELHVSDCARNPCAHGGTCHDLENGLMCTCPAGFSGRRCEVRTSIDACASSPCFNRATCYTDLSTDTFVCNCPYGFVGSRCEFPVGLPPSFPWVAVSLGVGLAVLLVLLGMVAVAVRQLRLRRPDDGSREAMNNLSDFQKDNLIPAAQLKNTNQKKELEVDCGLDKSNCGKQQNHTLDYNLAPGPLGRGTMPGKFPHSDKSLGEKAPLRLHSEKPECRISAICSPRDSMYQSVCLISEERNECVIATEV

B1: 318518-01A10-D8 (antibody, human IgG1)
heavy: not shown
VL: EIVMTQSPATLSLSPGERATLSCRASQSVSSYLAWYQQKPGQAPRLLIYDASNRATGIPARFSGSGSGTDFTLTISSLEPEDFAVYYCQHRSNWPPTFGGGTKVEIK
notes: HCVR 429 with hIgG1 constant region 950; also called REGN281; 318518-1A10-D8
What is called Kd is a measure of binding affinity in units of concentration. By koff is commonly meant the first-order rate constant of dissociation. Low values mean a long-lived complex, high ones a short-lived complex. For orientation: kon means a measure of how fast the partners come together. Low values mean slow association, high ones fast association. Turning to B1, in test [1], the “EphrinB2 Expression IC50” value was found to be 0.305 nM and the “Hes1 Expression IC50” value worked out at 0.329 nM. For the same molecule, the affinity with hDII4-mFc [2], expressed as Kd, was 0.018 nM. In the test with hDII4-mFc [3], the affinity, expressed as Kd, was 0.0163 nM; the off-rate (koff) was determined as 4.96e-06 s⁻¹; the kon amounted to 302000 M⁻¹ s⁻¹. In the test with mmDII4-mFc, this molecule came in with a Kd of 0.0147 nM, a koff of 4.64e-06 s⁻¹ and a kon of 316000 M⁻¹ s⁻¹. In addition, in test [4], the Kd came out at 0.399 nM. Further, the binding result in [5] was “no binding (tested: 200 nM)”. Further, the binding result in test [6] is listed as “no binding (tested: 100 µg/ml)”. In the test with dimeric hDII4-hFc, the “Notch-inducible luciferase assay IC50 (pM), 1 nM hDII4-hFc” value worked out at 50.5 pM and the “Notch-inducible luciferase assay IC50 (pM), 1.5 nM hDII4-hFc” value came to 78.7 pM.

B2: REGN422 (antibody, human IgG4 S228P)
heavy: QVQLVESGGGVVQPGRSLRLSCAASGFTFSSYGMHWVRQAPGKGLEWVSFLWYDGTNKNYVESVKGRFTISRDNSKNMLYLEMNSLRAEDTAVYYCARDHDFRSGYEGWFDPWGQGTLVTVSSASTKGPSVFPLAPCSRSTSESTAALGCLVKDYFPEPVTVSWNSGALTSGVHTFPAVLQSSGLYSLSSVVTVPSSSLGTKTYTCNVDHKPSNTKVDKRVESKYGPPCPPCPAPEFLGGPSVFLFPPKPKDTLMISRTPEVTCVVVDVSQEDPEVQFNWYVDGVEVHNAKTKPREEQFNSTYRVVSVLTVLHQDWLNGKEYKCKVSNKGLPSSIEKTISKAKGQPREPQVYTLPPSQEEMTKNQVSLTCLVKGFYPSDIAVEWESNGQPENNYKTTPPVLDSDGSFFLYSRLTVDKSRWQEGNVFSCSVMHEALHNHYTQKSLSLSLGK
VL: B1 VL with M4L
notes: HCVR 901 with modified hIgG4 constant region 952
In the test with hDII4-mFc [3], B2 yielded an equilibrium dissociation constant (Kd) of 0.0133 nM, a koff of 4.6e-06 s⁻¹ and an on-rate (kon) of 346000 M⁻¹ s⁻¹. In the test with mmDII4-mFc, this molecule showed a Kd of 0.0098 nM, a koff of 4.15e-06 s⁻¹ and a kon of 423000 M⁻¹ s⁻¹. In addition, in test [7], the binding result is on record as “no binding (tested: 300 µg/ml)”. Further, in test [6], the binding result is given as “no binding (tested: 100 µg/ml)”. Further, in the test with dimeric hDII4-hFc, the “Notch-inducible luciferase assay IC50 (pM), 1 nM hDII4-hFc” value stood at 88.2 pM and the “Notch-inducible luciferase assay IC50 (pM), 1.5 nM hDII4-hFc” value is 131 pM.

B3: REGN421 (antibody, human IgG1)
heavy: not shown
VL: B1 VL with M4L
notes: HCVR 901 with hIgG1 constant region 950
For the molecule B3, in the test with hDII4-mFc [3], the Kd was 0.0137 nM, the off-rate constant (koff) came out at 4.7e-06 s⁻¹ and the on-rate (kon) amounted to 343000 M⁻¹ s⁻¹. In the test with mmDII4-mFc, binding was characterised by a dissociation constant (Kd) of 0.013 nM, the koff turned out to be 3.8e-06 s⁻¹ and the kon is 335000 M⁻¹ s⁻¹. Further, the binding result in [7] was “no binding (tested: 300 µg/ml)”. In test [6], the binding result is given as “no binding (tested: 100 µg/ml)”. For the same molecule, in the test with dimeric hDII4-hFc, the “Notch-inducible luciferase assay IC50 (pM), 1 nM hDII4-hFc” value was 54.4 pM and the “Notch-inducible luciferase assay IC50 (pM), 1.5 nM hDII4-hFc” value worked out at 87.3 pM.
